{"source": "patent US20150266963A1", "about": "(ARGEN X B V, published 2015)", "binders": {"B1": {"name": "ARGX-110 (non-fucosylated 41D12 human IgG1) (antibody, V domains shown)", "VH": "EVQLVESGGGLVQPGGSLRLSCAASGFTFSVYYMNWVRQAPGKGLEWVSDINNEGGTTYYADSVKGRFTISRDNSKNSLYLQMNSLRAEDTAVYYCARDAGYSNHVPIFDSWGQGTLVTVSS", "VL": "QAVVTQEPSLTVSPGGTVTLTCGLKSGSVTSDNFPTWYQQTPGQAPRLLIYNTNTRHSGVPDRFSGSILGNKAALTITGAQADDEAEYFCALFISNPSVEFGGGTQLTVLG", "notes": "also called 41D12 (ARGX-110)"}}, "key": {"[1]": {"biological_target": "T1, human CD70 expressed on the surface of cells (human, UniProt P32970 1-193)", "T1 construct": "whole, on cells; also called cell surface expressed CD70; CD70 on cells", "T1 sequence (looked up)": "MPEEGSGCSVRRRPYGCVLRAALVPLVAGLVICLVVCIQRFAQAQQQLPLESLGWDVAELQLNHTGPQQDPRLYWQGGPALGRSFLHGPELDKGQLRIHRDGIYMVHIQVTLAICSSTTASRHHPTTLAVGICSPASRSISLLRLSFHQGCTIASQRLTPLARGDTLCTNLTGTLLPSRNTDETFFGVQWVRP", "assay": "FACS MFI at 37 C, A549 cells; reference SGN70", "description": "(§1) Several cancer cell lines were tested by FACS analysis for binding of ARGX-110 and SGN70 (described in US2010/0129362) at saturating mAb concentrations (at least 2 μg/ml). This was either done at 4° C. (1 hour incubation of cells with mAbs) or at 37° C. (15 minutes incubation of cells with mAbs). Binding was detected using anti-hIgG1-Fc-FITC (AF006, Binding Site) or anti-hIgG1-Fc-PE antibody (eBioscience, 12-4998). Fluorescence was measured using a flow cytometer."}, "[2]": {"biological_target": "T1, human CD70 expressed on the surface of …", "assay": "FACS MFI at 37 C, Mino cells; reference SGN70", "description": "as §1"}, "[3]": {"biological_target": "T1, human CD70 expressed on the surface of …", "assay": "FACS MFI at 37 C, JVM-2 cells; reference SGN70", "description": "as §1"}, "[4]": {"biological_target": "T1, human CD70 expressed on the surface of …", "assay": "FACS MFI at 37 C, PANC-1 cells; reference SGN70", "description": "as §1"}, "[5]": {"biological_target": "T2, human-mouse CD70 chimera chim-2.2 (Flag-TNC-CD70)", "T2 construct": "also called chimera 2.2; not shown: N-terminal Flag tag, TNC trimerisation domain and any linkers of the Flag-TNC-CD70 construct", "T2 chain": "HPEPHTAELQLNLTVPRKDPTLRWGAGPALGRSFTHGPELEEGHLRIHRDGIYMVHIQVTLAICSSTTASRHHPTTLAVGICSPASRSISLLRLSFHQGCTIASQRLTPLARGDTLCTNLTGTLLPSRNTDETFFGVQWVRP", "assay": "ELISA; chimera captured by anti-Flag mAb; anti-human-Fc-HRP", "description": "(§2) A Maxisorb (Nunc) microtiter plate was coated with 3.5 μg/ml mouse M2 anti-Flag mAb (Sigma Aldrich, F3165) and the different chimeras were captured. A dilution series of the CD70 mAbs to be tested was applied starting at a concentration of 10 μg/ml and making 3-fold dilutions. After 2 hours, binding was detected using anti-human-Fc-HRP at a 16000-fold dilution. Staining was done with ABTS and OD at 405 nm was measured. As a positive control, CD27-Fc was applied which is able to bind to both human and mouse CD70 with good affinity as well as to the chimeric human-mouse CD70 variants."}, "[6]": {"biological_target": "T3, human-mouse CD70 chimera chim-2.3 (Flag-TNC-CD70)", "T3 construct": "also called chimera 2.3", "T3 chain": "T2 chain with R49Q, I52L", "assay": "ELISA; chimera captured by anti-Flag mAb; anti-human-Fc-HRP", "description": "as §2"}, "[7]": {"biological_target": "T4, human-mouse CD70 chimera chim-2.4 (Flag-TNC-CD70)", "T4 construct": "also called chimera 2.4", "T4 chain": "T2 chain with R49Q, I52L, M54R, V55L", "assay": "ELISA; chimera captured by anti-Flag mAb; anti-human-Fc-HRP", "description": "as §2"}, "[8]": {"biological_target": "T5, human-mouse CD70 chimera chim-2.1 (Flag-TNC-CD70) (Soluble homotrimer held by the TNC domain; one CD70 ECD chain is given.)", "T5 construct": "also called chimera 2.1; not shown: N-terminal Flag tag, TNC (tenascin-C) trimerisation domain and any linkers of the Flag-TNC-CD70 construct", "T5 chain": "T2 chain with E41D, E42K, H44Q", "assay": "ELISA; chimera captured by anti-Flag mAb; anti-human-Fc-HRP", "description": "as §2"}, "[9]": {"biological_target": "T1, human CD70 expressed on the surface of …", "assay": "flow cytometry on U266 cells, goat anti human IgG1 FITC [panel U266]"}, "[10]": {"biological_target": "T6, rhesus CD70 on LCL8664 cells (rhesus, UniProt F7GPA5 123-316)", "T6 construct": "whole, on cells", "T6 sequence": "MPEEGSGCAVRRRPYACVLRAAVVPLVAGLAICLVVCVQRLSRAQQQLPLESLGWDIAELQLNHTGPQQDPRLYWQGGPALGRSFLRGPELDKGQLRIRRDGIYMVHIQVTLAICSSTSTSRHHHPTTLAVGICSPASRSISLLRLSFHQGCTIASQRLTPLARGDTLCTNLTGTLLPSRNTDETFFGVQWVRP", "assay": "flow cytometry on rhesus LCL8664 cells, goat anti human IgG1 FITC [panel Rhesus monkey]"}, "[11]": {"biological_target": "T7, cynomolgus monkey CD70 on HSC-F cells (cynomolgus monkey, UniProt A0A2K5WTU9 1-190)", "T7 construct": "whole, on cells; also called cynomolgus CD70", "T7 sequence": "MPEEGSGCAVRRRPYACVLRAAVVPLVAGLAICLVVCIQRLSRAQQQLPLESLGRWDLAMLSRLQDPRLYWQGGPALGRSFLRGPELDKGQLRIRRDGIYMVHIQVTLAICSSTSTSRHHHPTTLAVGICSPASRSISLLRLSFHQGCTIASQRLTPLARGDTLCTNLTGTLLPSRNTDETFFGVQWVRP", "assay": "flow cytometry on cynomolgus HSC-F cells, goat anti human IgG1 FITC [panel cynomolgus monkey]"}}, "note": "Where a chain is given by its changes, count along the chain named."}
{"binder": "B1", "values": [{"measurement": "Signal in FACS of ARGX-110/signal in FACS of SGN70", "setting": "[1]", "value": 3.8, "unit": "ratio"}, {"measurement": "Signal in FACS of ARGX-110/signal in FACS of SGN70", "setting": "[2]", "value": 1, "unit": "ratio"}, {"measurement": "Signal in FACS of ARGX-110/signal in FACS of SGN70", "setting": "[3]", "value": 2.4, "unit": "ratio"}, {"measurement": "Signal in FACS of ARGX-110/signal in FACS of SGN70", "setting": "[4]", "value": 2.9, "unit": "ratio"}, {"measurement": "EC50", "setting": "[5]", "value": 0.016, "unit": "mg/L"}, {"measurement": "EC50", "setting": "[6]", "value": 0.015, "unit": "mg/L"}, {"measurement": "EC50", "setting": "[7]", "value": 0.014, "unit": "mg/L"}, {"measurement": "EC50", "setting": "[8]", "value": 0.015, "unit": "mg/L"}, {"measurement": "EC50 (read off the curve)", "setting": "[9]", "value": "~0.1", "unit": "mg/L"}, {"measurement": "EC50 (read off the curve)", "setting": "[10]", "value": "~0.2", "unit": "mg/L"}, {"measurement": "EC50 (read off the curve)", "setting": "[11]", "value": "~0.08", "unit": "mg/L"}]}
